Laboratory results: paper PMC3206593 (Bioorganic & medicinal chemistry, 2011)
Positions of bridges follow the written chain, without caps; N, C: chain ends. No end group written: not given here.

What was measured:
Aurora A = molecular target: T1, Aurora A (Homo sapiens, UniProt O14965); conditions: at a concentration of 100 μM; peptide appended to the helices; cited from earlier work
T1 sequence (O14965 1-403): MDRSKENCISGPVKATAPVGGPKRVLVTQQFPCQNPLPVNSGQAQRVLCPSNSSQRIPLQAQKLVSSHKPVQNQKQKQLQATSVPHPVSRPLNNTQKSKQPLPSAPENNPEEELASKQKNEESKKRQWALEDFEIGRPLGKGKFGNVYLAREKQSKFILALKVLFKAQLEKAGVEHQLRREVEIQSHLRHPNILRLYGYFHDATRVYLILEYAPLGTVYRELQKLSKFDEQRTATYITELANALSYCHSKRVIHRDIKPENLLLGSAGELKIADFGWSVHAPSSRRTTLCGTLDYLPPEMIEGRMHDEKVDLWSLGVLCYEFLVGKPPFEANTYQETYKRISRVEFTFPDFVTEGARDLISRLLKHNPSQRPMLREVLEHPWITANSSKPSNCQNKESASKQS

[1] = molecular target: T2, (CTRPWWLC)G cyclic peptide (disulfide 1-8 (inferred)); assay: radiometric kinase kinetic assay
T2 chain: CTRPWWLCG-NH2

GRRVVVSFAWD
inhibition of Aurora A (Aurora A): 35%

B1: Aurora kinase A (protein)
chain: MDRSKENCISGPVKATAPVGGPKRVLVTQQFPCQNPLPVNSGQAQRVLCPSNSSQRIPLQAQKLVSSHKPVQNQKQKQLQATSVPHPVSRPLNNTQKSKQPLPSAPENNPEEELASKQKNEESKKRQWALEDFEIGRPLGKGKFGNVYLAREKQSKFILALKVLFKAQLEKAGVEHQLRREVEIQSHLRHPNILRLYGYFHDATRVYLILEYAPLGTVYRELQKLSKFDEQRTATYITELANALSYCHSKRVIHRDIKPENLLLGSAGELKIADFGWSVHAPSSRRTTLCGTLDYLPPEMIEGRMHDEKVDLWSLGVLCYEFLVGKPPFEANTYQETYKRISRVEFTFPDFVTEGARDLISRLLKHNPSQRPMLREVLEHPWITANSSKPSNCQNKESASKQS
Ki [1]: 31 µM
